8 molecules from patent publication US20230340111A1 (published 2023) can be followed below.

Changes are numbered by the printed parent chain.

The target in assay [1] is T1, human FOLR1 expressed on SKOV-3 ovarian carcinoma cells (human, UniProt P15328 25-234).
T1 construct: Naturally expressed receptor on SKOV-3 cells; also called human FOLR1pos SKOV-3 cancer cells; human FOLR1-expressing cell line SKOV-3
Put plainly: saturation binding of 131I-labelled His6-tagged VHH on SKOV-3 cells (0-300 nM); non-specific binding by 100-fold unlabelled VHH. As for the experimental part:
In a first part, their in vitro behaviour was assessed by means of investigating their cellular binding and retention over time. The binding potential of the resulting radioconjugates was assessed to confirm that this was not affected by the introduction of ¹³¹I-SGMIB into the amino acid sequence of the different VHHs. To this, human FOLR1^pos SKOV-3 cancer cells were incubated with serial dilutions with concentrations ranging from 0 to 300 nM of the different ¹³¹I-labelled, His₆ tagged VHHs. A 100-fold excess of the corresponding unlabeled VHH was added in parallel to saturate the human FOLR1 receptors expressed on cancer cells, to assess non-specific binding.

Assay [2] deals with T1, human FOLR1 expressed on SKOV-3 ovarian …. The assay is described as follows: cellular retention on SKOV-3 cells: 10 nM 131I-VHH 1 h at 4 C, then up to 24 h at 37 C; membrane-bound plus internalized fraction. As for the experimental part:
The in vitro cellular retention of the different His₆- and untagged ¹³¹I-labeled VHHs was assessed on the same cancer cells. In this particular case, human FOLR1^pos SKOV-3 cancer cells were incubated with 10 nM ¹³¹I-labelled VHHs for 1h at 4° C., after which the unbound fraction was collected. A 100-fold excess of the corresponding unlabeled VHH to assess non-specific binding. Next, the cells were incubated with fresh medium up to 24 h at 37° C., after which the dissociated fraction was collected. Afterwards, the cells were washed with 0.05 M glycine pH 2.8 to collect the membrane-bound fraction. Finally, cells were solubilized with 1 M NaOH at room temperature to collect the internalized fraction. The sum of the membrane-bound and internalized fractions corresponds to the total cell-associated fraction.

Assay [3] concerns the target T2, human folate receptor beta (FOLR2), extracellular domain, recombinant (human, UniProt P14207 17-228, limits assumed).
T2 construct: extracellular domain; Bought protein; also called human FOLR2
The assay is described as follows: ELISA, coated recombinant protein, HA-tagged VHH in bacterial extract. As for the experimental part:
(§1) The day before, 0.1 µg recombinant protein at a concentration of 1 µg/mL in 100 mM NaHCO3, pH 8.2 was coated in a 96-well ELISA plate (Nunc MaxiSorp). Per VHH clone also a blank coated well was foreseen (only buffer). The wells were overcoated with protein-free T20 (PBS) blocking buffer (Pierce). After washing with PBS, pH7.4, 0.05% Tween, VHH-containing bacterial extract was added to every well. Binding of HA-tagged VHHs was detected by using mouse anti-HA.11 epitope tag (clone 16B12, Biolegend) as the primary Ab and goat anti-mouse IgG (whole molecule) alkaline phosphatase conjugate (Sigma-Aldrich) as the secondary Ab, with thorough washing with PBS, pH 7.4, 0.05% Tween in between. Signals were developed using phosphatase substrate (Sigma-Aldrich) in AP blot buffer (100 mM NaCl, 50 mM MgCl2, 100 mM Tris, pH 9.5). The absorbance was determined at 405 nm using an absorbance microplate reader (Molecular Devices). Per clone the ratio was determined between the absorbance in the antigen-coated well versus the well without antigen.
On the technique in general: An ELISA detects its analyte on a solid surface through an enzyme-linked reagent.

In assay [4] the target is T3, human folate receptor gamma (FOLR3), recombinant (human, UniProt P41439 23-245, limits assumed).
T3 construct: extracellular domain; Bought protein; also called human FOLR3
T3 sequence (P41439 23-245 limits assumed): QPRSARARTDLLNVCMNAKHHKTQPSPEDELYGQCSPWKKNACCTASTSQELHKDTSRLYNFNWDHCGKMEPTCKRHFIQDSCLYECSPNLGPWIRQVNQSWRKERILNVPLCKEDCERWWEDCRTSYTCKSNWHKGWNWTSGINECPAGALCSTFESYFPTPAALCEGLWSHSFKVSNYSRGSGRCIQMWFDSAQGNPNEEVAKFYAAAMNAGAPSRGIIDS
The assay is described as above. As for the experimental part:
as §1

The target in assay [5] is T4, murine FOLR1, extracellular domain, recombinant (murine, UniProt P35846 25-232).
T4 construct: extracellular domain; Bought protein; also called mouse FOLR1
T4 sequence (P35846 25-232 limits assumed): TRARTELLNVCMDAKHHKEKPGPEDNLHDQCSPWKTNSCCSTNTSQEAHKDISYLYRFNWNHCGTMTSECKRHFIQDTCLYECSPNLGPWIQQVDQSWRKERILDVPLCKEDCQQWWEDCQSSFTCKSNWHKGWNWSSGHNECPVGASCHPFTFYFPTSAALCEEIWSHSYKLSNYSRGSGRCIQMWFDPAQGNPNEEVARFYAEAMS
The description is as above. As for the experimental part:
as §1

For assay [6], the target named is human FOLR1 recombinant protein (extracellular domain of human folate receptor alpha) (human) (UniProt P15328). Put plainly: ELISA; coated recombinant protein, HA-tagged VHH in bacterial extract, anti-HA detection; A405 antigen well / blank well.
Chain of human FOLR1 recombinant protein (extracellular domain of human folate receptor alpha) (human) (P15328 25-233): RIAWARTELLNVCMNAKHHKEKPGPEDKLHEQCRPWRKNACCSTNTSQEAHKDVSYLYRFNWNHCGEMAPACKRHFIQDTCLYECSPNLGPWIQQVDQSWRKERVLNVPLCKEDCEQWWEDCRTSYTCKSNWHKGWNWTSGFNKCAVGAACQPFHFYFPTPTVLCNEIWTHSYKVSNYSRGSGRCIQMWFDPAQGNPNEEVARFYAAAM
For assay [7], the target named is T2, human folate receptor beta (FOLR2), …. Described as above. As for the experimental part: as §1
The target in assay [8] is T3, human folate receptor gamma (FOLR3), …. The assay is described as above. As for the experimental part: as §1
Assay [9] has as its target T4, murine FOLR1, extracellular domain, …. The description is as above. As for the experimental part: as §1
For assay [10], the target named is T5, human FOLR1 recombinant protein (extracellular domain of human folate receptor alpha) (human, UniProt P15328 25-233).
T5 construct: Bought recombinant protein (Sino Biological); also called hFOLR1; FR-alpha
T5 sequence (P15328 25-233): as above
The assay is described as follows: SPR (Biacore T200), human FOLR1 immobilized on CM5, His6-tagged VHH as analyte, 1:1 fit. As for the experimental part:
The kinetic parameters of antigen binding by purified VHHs were determined via surface plasmon resonance with a Biacore T200 instrument (GE Healthcare). The human FOLR1 recombinant protein (Sino Biological) was immobilized in 10 mM sodium acetate, pH 5.5 on a CM5 chip (GE Healthcare) via amine coupling chemistry to 500 RU. His₆-tagged VHHs were analyzed in a twofold serial dilution in HBS (125 nM-0.488 nM for VHHs A4 and A5; 10 nM-0.039 nM for VHHs A1, A2 and A3) with an analyte flow rate of 30 µl/min. The association phase took 180 s (A4-A5) or 450 s (A1-A3) and the dissociation phase 600 s (A4-A5) or 900 s (A1-A3). Regeneration was done by a single injection of 50 mM glycine-HCl, pH 2.5, 2 M MgCl₂ for 30 s at 30 µl/min, followed by 120 s stabilization. Binding curves were fitted using a ‘1:1 (antigen:analyte)’ binding model in Biacore T200 evaluation software.
(In general: SPR reads the build-up and loss of mass on a sensor chip optically.)

In assay [11] the target is T5, human FOLR1 recombinant protein …. The assay is described as follows: SPR dual injection on immobilized human FOLR1, 250 nM; competitor (1st VHH, saturating) A1; by the legend the value is of the 2nd VHH. As for the experimental part:
(§2) Competitive binding characteristics of His₆-tagged VHHs were determined via surface plasmon resonance with a Biacore T200 instrument (GE Healthcare). Immobilization of human FOLR1 recombinant protein (Sino Biological) and regeneration were performed as described below for kinetic measurements.
(§3) Table 8: Side-by-side comparison of His₆-tagged VHHs A1, A2, A3, A4, A5 for binding to human FOLR1 to identify competitive binding characteristics. Binding was measured in surface plasmon resonance with immobilized human FOLR1 recombinant protein as the ligand. After saturation of the ligand with VHH 1 an equimolar mixture of VHH 1 and VHH 2 was injected. Percentages express the loss in response level of VHH 2, relative to the response when VHH 2 was injected alone.

Assay [12] shares this target. The assay is described as follows: SPR dual injection on immobilized human FOLR1, 250 nM; competitor (1st VHH, saturating) A2; by the legend the value is of the 2nd VHH. As for the experimental part:
as §2, §3

For assay [13] the target is unchanged. The assay is described as follows: SPR dual injection on immobilized human FOLR1, 250 nM; competitor (1st VHH, saturating) A3; by the legend the value is of the 2nd VHH. As for the experimental part: as §2, §3
The target is the same in assay [14]. Put plainly: SPR dual injection on immobilized human FOLR1, 250 nM; competitor (1st VHH, saturating) A4; by the legend the value is of the 2nd VHH. As for the experimental part: as §2, §3
The target is the same in assay [15]. Put plainly: SPR dual injection on immobilized human FOLR1, 250 nM; competitor (1st VHH, saturating) A5; by the legend the value is of the 2nd VHH. As for the experimental part:
as §2, §3

T1 sequence (P15328 25-234 limits assumed): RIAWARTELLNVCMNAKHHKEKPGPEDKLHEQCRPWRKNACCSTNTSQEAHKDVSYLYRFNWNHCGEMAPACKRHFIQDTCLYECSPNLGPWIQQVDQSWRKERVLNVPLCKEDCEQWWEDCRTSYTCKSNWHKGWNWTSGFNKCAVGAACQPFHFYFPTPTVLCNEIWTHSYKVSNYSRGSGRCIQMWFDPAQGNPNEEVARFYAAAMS
T2 sequence (P14207 17-228 limits assumed): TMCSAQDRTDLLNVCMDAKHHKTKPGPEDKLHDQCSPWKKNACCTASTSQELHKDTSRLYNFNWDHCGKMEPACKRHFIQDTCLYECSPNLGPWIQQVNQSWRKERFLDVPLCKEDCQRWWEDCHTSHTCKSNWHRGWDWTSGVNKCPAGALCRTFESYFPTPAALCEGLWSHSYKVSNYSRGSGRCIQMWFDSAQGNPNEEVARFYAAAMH

B1: 131I-labeled His6-tagged VHH A2 (VHH)
VHH: DVQLVESGGGLVQAGGSLRLSCAADEMKFSNYDLAWYRRAPGKQRELAAIITSGGSTNYPDSVKGRFTISRDNAKNTVYLEMNSLKPEDTAVYYCNALRPWPQFSDYWGQGTQVTVSS
modifications: [131I]SGMIB conjugated to lysine side-chain amine groups
As for B1, the EC50 (usually the concentration that produces a half-maximal response) in [1] worked out at 1.1 nM. For the same molecule, the “cell-associated fraction of initial bound activity after 24 h” value in assay [2] is approximately 60%.

B2: HA-tagged variant of VHH A1 (VHH)
VHH: QVQLQESGGGLVQPGGSLRLSCAASESIFSRNHMSWYRQAPGKQRELAAIITSDGNTNYPDSVKGRFTISRDNAKNTVYLQMNSLKPEDTAVYYCNTFGRSVAGFYDYWGQGTQVTVSS
notes: Used as VHH-containing bacterial (periplasmic) extract in ELISA; also called A1 HA-tag
On to B2, for which the binding result in [3], in assay [4] and in assay [5] was “no binding” throughout. For the same molecule, the signal-to-background ratio in assay [6] was more than 20; in assay [7] it was approximately 1; in assay [8], approximately 1; in [9], approximately 1.

B3: 131I-labeled His6-tagged VHH A1 (VHH)
VHH: B2 VHH with Q1D, Q5V
modifications: [131I]SGMIB conjugated to lysine side-chain amine groups
As to B3, in assay [1], the half-maximal effective concentration (EC50) was found to be 0.7 nM. Moreover, in [2], the “cell-associated fraction of initial bound activity after 24 h” value is approximately 40%.

B4: HA-tagged variant of VHH A3 (VHH)
VHH: QVQLQESGGGLVQAGGSLRLSCGVSGNMFSMNLMGWYRQPPGKERDWVAVITKDGSTNYADSVKGRFTISRDNAKNTVSLQMNSLKPEDTAVYYCNVQDGSGWIRAWGWDWGQGTQVTVSS
notes: Used as VHH-containing bacterial (periplasmic) extract in ELISA; also called A3 HA-tag
B4: the binding result in [3], in assay [4] and in assay [5] was “no binding” each time. Moreover, the signal-to-background ratio was more than 20 in assay [6], approximately 1 in assay [7], approximately 1 in assay [8] and approximately 1 in [9].

B5: His6-tagged variant of VHH A5 (VHH)
VHH: B4 VHH with Q1D, Q5V, M28I, D46E, V50L, A60E, V97A
notes: Purified, unlabelled; also called A5 His6-tag
In the case of B5, the Kd (in general, the constant that tells how readily two partners part at equilibrium) in assay [10] turned out to be 14 nM. In addition, the koff (in general, the first-order rate constant of dissociation) in assay [10] turned out to be 0.018 s⁻¹. Also, in assay [10], the kon (usually the second-order rate constant of association) was 1.3e+06 M⁻¹ s⁻¹. Further, the “loss in response level of VHH 2 relative to VHH 2 injected alone” value in assay [11] is -96%; in assay [12] it was -99%; in [13], -100%; in [14], -98%.

B6: HA-tagged variant of VHH A5 (VHH)
VHH: B4 VHH with M28I, D46E, V50L, A60E, V97A
notes: Used as VHH-containing bacterial (periplasmic) extract in ELISA; also called A5 HA-tag
With B6, the binding result in assay [3], in assay [4] and in [5] was “no binding” each time. Moreover, the signal-to-background ratio was more than 20 in assay [6], approximately 1 in assay [7], approximately 1 in [8] and approximately 1 in [9].

B7: HA-tagged variant of VHH A4 (VHH)
VHH: QVQLQESGGGLARAGGSLRLSCAASGRAFSSTYAMGWFRQAPGKEREFVADINWSEGSPMYIDSVKDRFTISRDNARNSLYLQMNSLKSEDTAVYYCAARRFGQGYEYWGQGTQVTVSS
notes: Used as VHH-containing bacterial (periplasmic) extract in ELISA; also called A4 HA-tag
Regarding B7, the binding result in assay [3], in assay [4] and in assay [5] was “no binding” each time. The signal-to-background ratio was more than 20 in assay [6], approximately 1 in assay [7], approximately 1 in assay [8] and approximately 1 in [9].

B8: His6-tagged variant of VHH A4 (VHH)
VHH: B7 VHH with Q1D, Q5V
notes: Purified, unlabelled; also called A4 His6-tag
As to B8, the Kd in assay [10] was 4.3 nM. In addition, the koff in assay [10] was found to be 0.0057 s⁻¹. Also, the kon in assay [10] was 1.3e+06 M⁻¹ s⁻¹. Besides, the “loss in response level of VHH 2 relative to VHH 2 injected alone” value in [11] is -97%; in assay [12], -99%; in [13] it was -100%; in assay [15], -91%.
